Data taken from article PMC3857177 (PLoS ONE, 2013).

B5: human Shrm2 SD2 domain (1427–1610), untagged (domain or fragment, UniProt Q13796 1427-1610, looked up)
chain: SDLDHDLSVKKQELIESISRKLQVLREARESLLEDVQANTVLGAEVEAIVKGVCKPSEFDKFRMFIGDLDKVVNLLLSLSGRLARVENALNNLDDGASPGDRQSLLEKQRVLIQQHEDAKELKENLDRRERIVFDILANYLSEESLADYEHFVKMKSALIIEQRELEDKIHLGEEQLKCLLDSL
notes: Shroom2 (Shrm2), human, Shrm Domain 2 (SD2), residues 1427-1610; Cloned into pET151/D-TOPO (His6 removable with TEV); called untagged in the pull-down; also called Shrm SD2; human Shroom2 SD2; source: E. coli BL21(DE3) Codon+(RILP), purified; not shown: His6, N-terminal, cleaved
B7: human Rock1 707–946, 900ESE902 to alanine (domain or fragment, UniProt Q13464 707-946, looked up)
chain: EAKSVAMCEMEKKLKEEREAREKAENRVVQIEKQCSMLDVDLKQSQQKLEHLTGNKERMEDEVKNLTLQLEQESNKRLLLQNELKTQAFEADNLKGLEKQMKQEINTLLEAKRLLEFELAQLTKQYRGNEGQMRELQDQLEAEQYFSTLYKTQVKELKEEIEEKNRENLKKIQELQNEKETLATQLDLAETKAAAAQLARGLLEEQYFELTQESKKAASRNRQEITDKDHTVSRLEEANS
notes: source: E. coli BL21(DE3) codon plus (RIPL), purified; not shown: His6, N-terminal, cleaved
B8: human Shrm2 SD2 domain (1427–1610), N-terminally labelled with Oregon Green 488 (domain or fragment, UniProt Q13796 1427-1610, looked up)
chain: SDLDHDLSVKKQELIESISRKLQVLREARESLLEDVQANTVLGAEVEAIVKGVCKPSEFDKFRMFIGDLDKVVNLLLSLSGRLARVENALNNLDDGASPGDRQSLLEKQRVLIQQHEDAKELKENLDRRERIVFDILANYLSEESLADYEHFVKMKSALIIEQRELEDKIHLGEEQLKCLLDSL
modifications: Oregon Green 488 (succinimidyl ester) on the N-terminus, labelling essentially 1:1
notes: Shroom2 (Shrm2), human, Shrm Domain 2 (SD2), residues 1427-1610; Same construct as m1, with the fluorophore; also called Shrm2 SD2-Oregon Green 488; Oregon-Green labeled human Shrm2 SD2 domain; source: E. coli BL21(DE3) Codon+(RILP), purified, then labelled

Legend:
[1] = target: T1, human Shrm2 SD2 domain (1427–1610), N-terminally labelled with Oregon Green 488 (human, UniProt Q13796 1427-1610, Oregon Green 488 (succinimidyl ester) on the N-terminus, labelling essentially 1:1); assay: FP
T1 chain: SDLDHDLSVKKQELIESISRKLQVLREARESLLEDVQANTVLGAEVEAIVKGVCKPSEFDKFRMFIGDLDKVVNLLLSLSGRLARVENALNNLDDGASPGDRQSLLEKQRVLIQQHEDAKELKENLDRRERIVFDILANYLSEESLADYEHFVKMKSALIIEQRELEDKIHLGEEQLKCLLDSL

[2] = target: B8; assay: fluorescence polarisation; fluorescence anisotropy; 20 nM (legends: 50 nM) N-terminally Oregon Green 488-labelled Shrm2 SD2, increasing concentrations of Rock1 SBD; 20 mM Hepes pH 7.4, 100 mM NaCl, 5% glycerol; single binding model; conditions: both partners purified
[3] = target: the molecule itself; assay: cross-linking; 0.002% glutaraldehyde, 25 min, 26 µM protein; 25 mM HEPES pH 7.5, 8% glycerol, 500 mM NaCl, 5 mM β-ME; SDS-PAGE, Coomassie
[4] = target: B5; assay: pull-down; 25 µg purified His-tagged Rock1 fragment on nickel beads, 2x molar excess of untagged Shrm2 SD2, 10 min room temperature; 2% glycerol, 100 mM NaCl, 7 mM imidazole, 1 mM β-mercaptoethanol, 20 mM Tris pH 8.0; SDS-PAGE, Coomassie; conditions: both partners purified
[5] = target: T2, His6-tagged human Rock1 707–913 (human, UniProt Q13464 707-913); assay: as above; conditions: both partners purified
T2 construct: source: E. coli BL21(DE3) codon plus (RIPL), purified; not shown: His6, N-terminal, kept
T2 sequence (looked up): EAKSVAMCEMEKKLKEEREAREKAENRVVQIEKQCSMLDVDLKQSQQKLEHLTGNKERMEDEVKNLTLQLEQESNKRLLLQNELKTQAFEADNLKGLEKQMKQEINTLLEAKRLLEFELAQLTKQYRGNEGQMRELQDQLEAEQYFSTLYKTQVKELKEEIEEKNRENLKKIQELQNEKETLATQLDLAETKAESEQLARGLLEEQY

[6] = target: T3, human Rock1 707–946, SBD^SER variant (human, UniProt Q13464 707-946, triple alanine mutation, 884EKE886); assay: native gel or EMSA; 10 µM Rock1 707–946 (wild type or mutant) mixed with 10 µM human Shrm2 SD2, 20 min room temperature; 12% native PAGE at 4°C, Coomassie; conditions: both partners purified
T3 construct: source: E. coli BL21(DE3) codon plus (RIPL), purified; not shown: His6, N-terminal, cleaved
T3 sequence (looked up): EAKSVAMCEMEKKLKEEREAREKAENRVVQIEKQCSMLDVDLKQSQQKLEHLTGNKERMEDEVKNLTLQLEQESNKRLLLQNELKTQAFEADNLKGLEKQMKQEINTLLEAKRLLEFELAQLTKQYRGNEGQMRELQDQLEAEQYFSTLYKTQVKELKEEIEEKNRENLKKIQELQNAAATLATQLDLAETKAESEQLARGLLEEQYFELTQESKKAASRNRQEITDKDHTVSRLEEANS

[7] = target: T4, human Rock1 707–946, 865EE866 to alanine (human, UniProt Q13464 707-946, 865EE866 alanine substitutions); assay: as above; conditions: both partners purified
T4 construct: source: E. coli BL21(DE3) codon plus (RIPL), purified; not shown: His6, N-terminal, cleaved
T4 sequence (looked up): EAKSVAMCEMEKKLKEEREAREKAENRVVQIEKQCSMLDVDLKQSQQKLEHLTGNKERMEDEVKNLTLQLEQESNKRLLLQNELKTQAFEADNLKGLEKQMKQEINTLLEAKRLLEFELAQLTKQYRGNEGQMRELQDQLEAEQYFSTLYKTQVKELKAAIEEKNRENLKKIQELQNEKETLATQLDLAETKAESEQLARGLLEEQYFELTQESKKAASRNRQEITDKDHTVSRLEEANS

[8] = target: B7; assay: as above; conditions: both partners purified
[9] = target: T5, human Rock1 707–946, wild type (human, UniProt Q13464 707-946); assay: as above; conditions: both partners purified
T5 construct: also called wild-type Rock1 SBD; not shown: His6, N-terminal, cleaved
T5 sequence (looked up): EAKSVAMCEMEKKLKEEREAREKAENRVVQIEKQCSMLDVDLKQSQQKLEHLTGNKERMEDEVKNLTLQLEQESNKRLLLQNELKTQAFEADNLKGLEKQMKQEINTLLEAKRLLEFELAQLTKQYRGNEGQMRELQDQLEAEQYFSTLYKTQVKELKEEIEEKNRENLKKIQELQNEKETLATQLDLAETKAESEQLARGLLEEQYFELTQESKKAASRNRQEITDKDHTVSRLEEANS

[10] = target: human Rock1 707–946, 900ESE902 to alanine (human, UniProt Q13464 707-946, 900ESE902 alanine substitutions); assay: FP
[11] = target: T5, human Rock1 707–946, wild type; assay: fluorescence polarisation; fluorescence anisotropy; 20 nM (legends: 50 nM) N-terminally Oregon Green 488-labelled Shrm2 SD2, increasing concentrations of Rock1 SBD; 20 mM Hepes pH 7.4, 100 mM NaCl, 5% glycerol; single binding model; conditions: both partners purified

B1: human Rock1 SBD (834–913), wild type (domain or fragment, UniProt Q13464 834-913, looked up)
chain: GNEGQMRELQDQLEAEQYFSTLYKTQVKELKEEIEEKNRENLKKIQELQNEKETLATQLDLAETKAESEQLARGLLEEQY
notes: PDB 4L2W holds the same limits with the SER mutation 884EKE886 to AAA; also called WT SBD; not shown: His6, N-terminal, cleaved
- Kd [1]: 5.3 µM
- binding result [2]: binds
- stoichiometry N [3]: 2

B2: His6-tagged human Rock1 834–913 (domain or fragment, UniProt Q13464 834-913, looked up)
chain: GNEGQMRELQDQLEAEQYFSTLYKTQVKELKEEIEEKNRENLKKIQELQNEKETLATQLDLAETKAESEQLARGLLEEQY
notes: PDB 4L2W holds the same limits with the SER mutation 884EKE886 to AAA; source: E. coli BL21(DE3) codon plus (RIPL), purified; not shown: His6, N-terminal, kept
- binding result [4]: binds

B3: human Rock1 SBD (834–913) with the surface entropy reduction mutation (SBD^SER) (domain or fragment, UniProt Q13464 834-913, looked up)
chain: GNEGQMRELQDQLEAEQYFSTLYKTQVKELKEEIEEKNRENLKKIQELQNAAATLATQLDLAETKAESEQLARGLLEEQY
notes: A selenomethionine form was used for phasing only; also called Rock1 SBD^SER; SER mutant; not shown: His6, N-terminal, cleaved
- stoichiometry N [3]: 2

B4: His6-tagged human Rock1 772–913 (domain or fragment, UniProt Q13464 772-913, looked up)
chain: LTLQLEQESNKRLLLQNELKTQAFEADNLKGLEKQMKQEINTLLEAKRLLEFELAQLTKQYRGNEGQMRELQDQLEAEQYFSTLYKTQVKELKEEIEEKNRENLKKIQELQNEKETLATQLDLAETKAESEQLARGLLEEQY
notes: source: E. coli BL21(DE3) codon plus (RIPL), purified; not shown: His6, N-terminal, kept
- binding result [4]: binds

Binder: B5
- binding result [5]: binds
- binding result [6]: binds
- binding result [7]: binds
- binding result [8]: binds
- binding result [9]: binds

B6: human Rock1 707–946, wild type (domain or fragment)
chain: EAKSVAMCEMEKKLKEEREAREKAENRVVQIEKQCSMLDVDLKQSQQKLEHLTGNKERMEDEVKNLTLQLEQESNKRLLLQNELKTQAFEADNLKGLEKQMKQEINTLLEAKRLLEFELAQLTKQYRGNEGQMRELQDQLEAEQYFSTLYKTQVKELKEEIEEKNRENLKKIQELQNEKETLATQLDLAETKAESEQLARGLLEEQYFELTQESKKAASRNRQEITDKDHTVSRLEEANS
- Kd [1]: 1.7 µM

Binder: B7
- fold decrease in binding affinity against wild type [2]: ~5.5 fold

Binder: B8
- Kd [10]: 9.3 µM
- binding result [11]: binds
